The text below walks through data of PMC7311640, “The Beta Subunit of Non-bifurcating NADH-Dependent [FeFe]-Hydrogenases Differs From Those of Multimeric Electron-Bifurcating [FeFe]-Hydrogenases” (Frontiers in Microbiology, 2020).

This data set deals with the molecule itself. The data set is described as follows: SEC; purified HydAB fraction on Superdex 200 10/300 GL calibrated with gel filtration standards.

B1: αβ heterodimer of Syntrophus aciditrophicus HydAB (His-HydA with HydB) (complex)
chain 1: MEEHMSSINLTVNNIDVEVEAGATLYQAAQKAGVNIPTLCAWFDKDHTPGACRVCVVEVEGMPSLAASCAYPAQNGMKVFTNSDKVRQARKMIVELILASHPQECNFCVRNGNCELQKVAEMVGVKNIRYDSEEFDRDRELDTSSPAIVRDSSKCINCRRCVTVCESIQTVAALSPMNRGYESTVSPAFNLPLNETNCVNCGQCVMACPVGALYEKDQVDEVWKALQDPTRHVVVQEAPAIRAALGEEFGMPPGSLVTGKMIAALRRLGFDKVFDTNFTADLTIIEEGNELLKRVKEGGTLPMITSCSPGWIKFCEHFYPDLLGHLSTCKSPQQMFGALAKTYYAQVSGIDPANIFSVSIMPCTAKKYEAQRPEMKSSGYQDVDVVLTTRELARMIKEAGIDFVNLPDEKYDDPMGEYTGAATIFGATGGVMEAALRTVYAVVTGEELSDLNIMPVRGLEGVKAAAVPVGALGDVKVAVAHGLGNARKLLDEIRAGKSEYAFIEVMCCPGGCVAGGGEPIPTTDEIRMLRAGALYRDDGEVQQYRQSHQSPPVKAVYEKFLKEPLGHKSHELLHTHYVQRGQSLPHLDASPAGEKETVEAMCEKD
chain 2: MITVQDIENVIAARGNAREHLMAILRDLENLSGRNVLDVSVLNTLAMKMDLPQSAISGFTSFYTMFSTEPRAKFIIRVCKSGPCHVMGARTIFDVIENHLGIRAGETTADGLFHLEECECLGLCSAAPAMMVNYDMHGNLSESNIKEILDSYSAREPAFKAEYGPGIEGRAVIINNSQQTRRLLENVGKVDPASIESYLQNGGYEAARKAFAEYSPEQVIGIVKDSGLRGRGGAGFPVGVKWSFVPKGEMQKYVICNADEGEPGTFKDRVLMEENPQQLIEGMLLCGYAIGATLGYIYVRGEYRRSIERLQSAIDQARAKGFLGKKIFGSNFDFDIFVKEGGGAYVCGEETSLINSMEGKRGYPRVRPPFPAAAGFMGMPSNVNNVETLSSIPMIVARGADWFKSVGTATCAGTKLYCLSGKVNQTGLVELPMGATLRQMIDTFGGGMKSGSSFKFAQVGGAAGGILGADLMDLPLDIDSTIKAGVTLGSGVVLVCDQETCAVDFLLNVLNFFEHESCGQCIPCKLGTSQLHYVAQKFAMREAEEKDIQLMIDTAKMMKLASLCALGQSPILPIETMIRNFREEFVKHCDPDYECPQCDASLQAYYL
notes: HydA, [FeFe]-hydrogenase alpha subunit, Syntrophus aciditrophicus, locus tag SYN_01370; as the chain of m1; HydB, [FeFe]-hydrogenase beta subunit, Syntrophus aciditrophicus, locus tag SYN_01369; as the chain of m2; Unit of the α2β2 heterotetramer found by size exclusion chromatography; also called HydAB fraction; 144 kDa αβ heterodimer; source: E. coli BL21(DE3), co-expressed with maturation genes
Usually stoichiometry N stands for a count of units in the complex or per binding partner. Turning to B1, the “stoichiometry N” value amounted to 2.
